Results: patent publication US20230382970A1 (HANMI PHARM, published 2023)
Bridge positions count the residues as written; N and C are the ends. Square brackets hold non-standard residues; d marks the D form. Ends that are not written are not given here. Aib = CC(C)(N)C(=O)O

T1: human GIP receptor (human, UniProt P48546 22-466)
T1 sequence (looked up): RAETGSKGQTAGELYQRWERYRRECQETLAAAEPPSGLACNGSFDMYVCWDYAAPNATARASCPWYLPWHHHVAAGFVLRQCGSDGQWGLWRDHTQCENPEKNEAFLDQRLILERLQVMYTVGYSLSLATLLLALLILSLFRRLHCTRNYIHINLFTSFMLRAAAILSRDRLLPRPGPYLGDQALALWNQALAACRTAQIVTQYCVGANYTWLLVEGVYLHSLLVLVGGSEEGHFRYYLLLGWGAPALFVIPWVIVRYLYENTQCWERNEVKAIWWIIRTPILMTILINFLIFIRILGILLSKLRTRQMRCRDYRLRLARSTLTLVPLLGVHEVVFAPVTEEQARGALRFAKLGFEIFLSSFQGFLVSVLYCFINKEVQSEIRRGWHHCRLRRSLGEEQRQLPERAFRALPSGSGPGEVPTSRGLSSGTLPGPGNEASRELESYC


Columns and labels:
human GLP-1 receptor = human GLP-1 receptor (human, UniProt P43220 24-463); assay: cell-based or functional assay
human GIP receptor = target: T1, human GIP receptor; assay: cell-based or functional assay

Binder | In vitro activity (%) compared to native-type peptide, vs human GLP-1 (cAMP EC50, human GLP-1 receptor-expressing CHO cells) (human GLP-1 receptor) | In vitro activity (%) compared to native-type peptide, vs human GIP (cAMP EC50, human GIP receptor-expressing CHO cells) (human GIP receptor)
Y[Aib]EGTFTSDYSI[Aib]LDKIAQRAFVQWLIAGGPSSGAPPPSK [GLP-1/GIP dual agonist of SEQ ID NO: 16] | 60% | 72.3%
Y[Aib]EGTFTSDYSEYMEKEAVREFIAWLVRGGPSSGAPPPSK (bridge 12-16) [GLP-1/GIP dual agonist of SEQ ID NO: 12] | 110% | –
Y[Aib]EGTFTSDYSKYLDEIAAKDFVQWLLDHHPSSGQPPPSC (bridge 16-20) [GLP-1/GIP dual agonist of SEQ ID NO: 3] | 6.8% | 28.7%
Y[Aib]EGTFTSDYSRYLDERAAKDFVQWLLDHHPSSGQPPPSK (bridge 16-20) [GLP-1/GIP dual agonist of SEQ ID NO: 9] | 141% | –
Y[Aib]EGTFTSDYSIQLDKIAQKAFVQWLIAGGPSSGAPPPSC [GLP-1/GIP dual agonist of SEQ ID NO: 17] | 19.8% | 7.7%
Y[Aib]EGTFTSDYSEYMEKEAVREFIAWLVKGGPSSGAPPPSC (bridge 12-16) [GLP-1/GIP dual agonist of SEQ ID NO: 1] | 53.9% | 27.5%
Y[Aib]EGTFTSDYSKYLDEKAAKDFVQWLLDHHPSSGQPPPSC (bridge 16-20) [GLP-1/GIP dual agonist of SEQ ID NO: 5] | 20.2% | 48.2%
Y[Aib]EGTFTSDYSIYLDKQAA[Aib]AFVQWLIAGGPSSGAPPPSC [GLP-1/GIP dual agonist of SEQ ID NO: 19] | 32.8% | 13.9%
Y[Aib]EGTFTSDYSKYLDEIAQKDFVQWLLDQHPSSGAPPPSC (bridge 16-20) [GLP-1/GIP dual agonist of SEQ ID NO: 24] | 7.3% | 83.9%
Y[Aib]EGTFTSDYSKYLDEIRAKDFVQWLLDHHPSSGQPPPSC (bridge 16-20) [GLP-1/GIP dual agonist of SEQ ID NO: 2] | 3.3% | 28.8%
Y[Aib]EGTFTSDYSRYLDERAQKDFVQWLLDHHPSSGQPPPSK (bridge 16-20) [GLP-1/GIP dual agonist of SEQ ID NO: 10] | 108% | –
Y[Aib]EGTFTSDYSKYLDEEAVKLFVQWLLDQHPSSGAPPPSC (bridge 16-20) [GLP-1/GIP dual agonist of SEQ ID NO: 25] | 3.2% | 59.4%
Y[Aib]EGTFTSDYSEYMEKEAVREFISWLVRGGPSSGAPPPSK (bridge 12-16) [GLP-1/GIP dual agonist of SEQ ID NO: 13] | 116% | –
H[Aib]EGTFTSDYSKYLDKKRQ[Aib]EFVQWLLNGGPSSGAPPPSC [GLP-1/GIP dual agonist of SEQ ID NO: 14] | 160% | 0.3%
Y[Aib]EGTFTSDYSI[Aib]LDKQAA[Aib]AFVQWLIAGGPSSGAPPPSC [GLP-1/GIP dual agonist of SEQ ID NO: 20] | 31.5% | 64.2%
Y[Aib]EGTFTSDYSIQLDKIAQRAFVQWLIAGGPSSGAPPPSK [GLP-1/GIP dual agonist of SEQ ID NO: 18] | 43.3% | 15.9%
Y[Aib]EGTFTSDYSKYLDERASKDFVQWLLDHHPSSGQPPPSC (bridge 16-20; also: ring type not given here) [GLP-1/GIP dual agonist of SEQ ID NO: 8] | 35.9% | 29.2%
Y[Aib]EGTFTSDYSKYLDEKAAKEFVQWLLDQHPSSGQPPPSC (bridge 16-20) [GLP-1/GIP dual agonist of SEQ ID NO: 22] | 41.1% | 39.6%
Y[Aib]EGTFTSDYSI[Aib]LDKIAAKAFVQWLIAGGPSSGAPPPSC [GLP-1/GIP dual agonist of SEQ ID NO: 21] | 19.7% | 23.2%
Y[Aib]EGTFTSDYSKYLDEQAAKEFVQWLLDQHPSSGAPPPSC (bridge 16-20) [GLP-1/GIP dual agonist of SEQ ID NO: 23] | 13.5% | 106%
Y[Aib]EGTFTSDYSRYLDERASKDFVQWLLDHHPSSGQPPPSK (bridge 16-20) [GLP-1/GIP dual agonist of SEQ ID NO: 11] | 95% | –
Y[Aib]EGTFTSDYSIYLDERACKDFVQWLLDHHPSSGQPPPSYK (bridge 16-20) [GLP-1/GIP dual agonist of SEQ ID NO: 15] | 97.5% | 64.4%
Y[Aib]EGTFTSDYSIAMDAIAQQDFVNWLLAQKGKKNDWKHNITQC [GLP-1/GIP dual agonist of SEQ ID NO: 26] | 0.3% | 57.9%
Y[Aib]EGTFTSDYSKYLDERAQKDFVQWLLDHHPSSGQPPPSC (bridge 16-20; also: ring type not given here) [GLP-1/GIP dual agonist of SEQ ID NO: 7] | 18.3% | 62.3%
